The results in this text go back to patent US20220281980A1 (Bristol-Myers Squibb, published 2022).

Experiment [1] concerns the target T1, human MICA/B endogenously expressed on HeLa cells (MICA allele *008) (human, UniProt Q29983 24-331).
T1 construct: it speaks of MICA/B, so MICB may be present as well
T1 chain: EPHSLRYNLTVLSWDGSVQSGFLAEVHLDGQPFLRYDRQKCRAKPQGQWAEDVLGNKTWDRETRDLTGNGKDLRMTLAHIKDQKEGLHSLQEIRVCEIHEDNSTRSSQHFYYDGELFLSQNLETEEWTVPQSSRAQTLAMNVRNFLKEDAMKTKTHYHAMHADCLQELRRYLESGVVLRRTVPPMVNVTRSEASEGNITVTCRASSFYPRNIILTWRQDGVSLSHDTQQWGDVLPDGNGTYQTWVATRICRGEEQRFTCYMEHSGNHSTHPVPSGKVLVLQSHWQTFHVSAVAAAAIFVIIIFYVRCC
Put plainly: flow cytometry, tumor cells with endogenous MICA/B. (A flow cytometer gives signals particle by particle.)

In experiment [2] the target is T2, cynomolgus monkey MICA/B clone #6 expressed on CHO cells (cynomolgus monkey).
T2 construct: whole, on cells; also called cyno#6; CHO-cyno MICA clone #6
Put plainly: saturation binding of 125I-labelled antibody on CHO-MICA Cyno #6 cells, 25K per well (Scatchard analysis); unit from the x axis 'nM Radioligand'. As for the experimental part:
(§1) Nonspecific binding was determined by binding in the presence of a titration of a 100 fold molar excess of unlabeled antibody and was subtracted from total counts per minute (CPM) to calculate specific binding. A linear standard curve of ¹²⁵I-MICA.36 concentration versus CPM was used to extrapolate specific activity, maximal nM bound ¹²⁵I-MICA.36 and thereby calculate receptor number per cell.
(§2) Specific activity of the iodinated MICA.36 was determined by plotting antibody titrations against the associated CPMs in a standard curve (FIG. 7A). The specific activity was calculated to be 164,214 CPM in 1 nM of ¹²⁵I-MICA.36. The number of receptors per cell was calculated by the following equation: (Bmax)×(Avogadro's number)×(Assay Volume)/# of cells per well.

For experiment [3], the target named is T3, human MICA/B endogenously expressed on SW480 cells (human, UniProt Q29983 24-383).
T3 construct: whole, on cells
T3 sequence (looked up): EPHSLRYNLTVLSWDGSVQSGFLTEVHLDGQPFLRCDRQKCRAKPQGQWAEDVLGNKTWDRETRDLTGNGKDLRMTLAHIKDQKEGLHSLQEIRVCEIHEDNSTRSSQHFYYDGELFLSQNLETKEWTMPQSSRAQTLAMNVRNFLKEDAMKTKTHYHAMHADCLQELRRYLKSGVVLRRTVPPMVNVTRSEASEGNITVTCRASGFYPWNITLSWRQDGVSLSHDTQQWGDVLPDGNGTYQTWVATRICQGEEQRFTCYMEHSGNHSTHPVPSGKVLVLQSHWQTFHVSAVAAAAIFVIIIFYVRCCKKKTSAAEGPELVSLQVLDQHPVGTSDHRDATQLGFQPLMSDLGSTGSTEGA
Put plainly: Scatchard analysis, 125I-MICA.36 on SW480 cells; SW480 cells (FIG. 7G). As for the experimental part:
as §1, §2

The target of experiment [4] is T3, human MICA/B endogenously expressed on …. Put plainly: saturation binding of 125I-labelled antibody on SW480 cells, 25,000 cells/well; fit of total binding, non-specific binding not subtracted; x axis without unit. As for the experimental part: as §1, §2
The target of experiment [5] is T4, human MICA/B endogenously expressed on 786-O cells (MICA allele *008) (human, UniProt Q29983 24-331).
T4 construct: it speaks of MICA/B, so MICB may be present as well; also called 786-0
T4 chain: T1 chain
Put plainly: saturation binding of 125I-labelled antibody on 786-O cells, 50,000 cells/well; fit of total binding, non-specific binding not subtracted. How it is done: as §1

Experiment [6] addresses T4, human MICA/B endogenously expressed on …. Put plainly: saturation binding of 125I-labelled antibody on 786-O cells, 50,000 cells/well (Scatchard analysis); unit from the x axis 'nM Antibody'. As for the experimental part:
as §1, §2

The target of experiment [7] is T5, human MICA*008 expressed on CHO cells (human, UniProt Q29983 24-331).
T5 construct: also called MICA allele 008
T5 chain: T1 chain
Put plainly: saturation binding of 125I-labelled antibody on CHO-MICA*008 cells, 12,500 cells/well (Scatchard analysis); specific = total minus binding with 100-fold unlabelled antibody; unit from the x axis 'nM Antibody'. As for the experimental part:
as §1, §2

The target in experiment [8] is T6, cynomolgus monkey MICA/B clone #4 expressed on CHO cells (cynomolgus monkey).
T6 construct: whole, on cells; also called cyno#4; CHO-cyno MICA clone #4
Put plainly: saturation binding of 125I-labelled antibody on CHO-MICA Cyno #4 cells, 25K per well (Scatchard analysis); unit from the x axis 'nM Radioligand'; curve not saturated at 20 nM. As for the experimental part:
as §1, §2

For experiment [9], the target named is T7, human MICB expressed on transduced cells (human, UniProt Q29980 23-382).
T7 construct: also called MICB*005
T7 chain: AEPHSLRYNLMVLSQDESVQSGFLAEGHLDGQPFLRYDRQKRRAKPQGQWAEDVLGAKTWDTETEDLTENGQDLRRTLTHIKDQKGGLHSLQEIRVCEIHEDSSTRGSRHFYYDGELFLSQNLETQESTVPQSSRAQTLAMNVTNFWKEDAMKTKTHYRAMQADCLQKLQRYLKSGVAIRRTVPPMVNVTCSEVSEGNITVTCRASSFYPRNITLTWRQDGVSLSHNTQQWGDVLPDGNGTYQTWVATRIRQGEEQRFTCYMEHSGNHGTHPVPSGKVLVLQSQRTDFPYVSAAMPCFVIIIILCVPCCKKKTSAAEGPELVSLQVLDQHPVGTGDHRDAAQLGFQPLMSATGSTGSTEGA
Put plainly: saturation binding of 125I-labelled antibody on CHO-MICB cells, 12500 per well; fit of total binding, non-specific binding not subtracted; x axis without unit. As for the experimental part: as §1, §2

The target of experiment [10] is T7, human MICB expressed on transduced cells. Put plainly: saturation binding of 125I-labelled antibody on CHO-MICB cells, 12500 per well (Scatchard analysis); x axis 'Ab' carries no unit, nM taken from paragraph 587. As for the experimental part: as §1, §2
Experiment [11] concerns the target T6, cynomolgus monkey MICA/B clone #4 …. Put plainly: saturation binding of 125I-labelled antibody on CHO-MICA Cyno #4 cells, 25K per well; fit of total binding, non-specific binding not subtracted. As for the experimental part:
as §1

For experiment [12], the target named is T4, human MICA/B endogenously expressed on …. Put plainly: Scatchard analysis, 125I-MICA.36 on 786-0 cells; 786-0 cells (FIG. 7F). As for the experimental part:
as §1, §2

B1: MICA.2 (antibody, human IgG1, kappa, V domains shown)
VH: EVQLVESGGGLVQPGGSLRLSCAASGFTFSTYSMNWVRQAPGKGLEWVSYISYRSRTIYYADSVKGRFTISRDNARNSLYLQMNSLRDEDTAVYYCARWGYGSGGFDYWGQGTLVTVSS
VL: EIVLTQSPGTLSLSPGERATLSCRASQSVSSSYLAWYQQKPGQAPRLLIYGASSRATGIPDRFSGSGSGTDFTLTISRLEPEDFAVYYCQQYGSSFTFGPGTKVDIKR
notes: 3F5 variable regions on human IgG1f and human kappa constant regions, made in CHO-S cells; also called 3F5; recombinant antibody of 3F5
For orientation: EC50 means the concentration that produces a half-maximal response. Molecule B1 returned an EC50 in [1] of 1.74 nM.

B2: 71C2 (antibody, V domains shown)
VH: EVQLVESGGGLVQPGRSLRLSCAASGFTFNNYAMHWVRQAPGKGLEWVSGITWNSDSIGYADSVKGRFTISRDNAKNSLYLQMNSLRAEDTALYYCAKDSVLLWFGGMDVWGQGTTVTVSS
VL: not shown
notes: Hybridoma antibody
In experiment [1], B2 registered an EC50 of 10.2 nM.

B3: 24G11 (antibody, V domains shown)
VH: EVQLVQSGAEVKKPGESLKISCKGSGYSFTNYWIGWVRQMPGKGLEWLGIIHPGDSYTRYSPSFQGQVTISADKSISTAYLQWSSLKASDTAIYYCAREGIAATPFDYWGQGTLVTVSS
VL: EIVLTQSPATLSLSPGERATLSCRASQSVSSYLAWFQQKPGQAPRLLIYDASNRATGIPARFSGSGSGTDFTLTISSLEPEDFAVYYCQQRSNWPPTFGQGTKVEIK
notes: also called MICA.54; 24G11 (MICA.54)
In the case of B3, a half-maximal effect in experiment [1] (EC50) was put at 192 nM.

B4: MICA.36 (antibody, V domains shown)
VH: QVQLVESGGGVVQPGRSLRLSCAASGFTFSNYAMHWVRQAPGEGLEWVALIWYDGSNKFYGDSVKGRFTISRDNSKNTLYLQMNSLSAEDTAVYYCAREGSGHYWGQGTLVTVSS
VL: AIQLTQSPSSLSASVGDRVTITCRASQGISSALAWYQQKPGKVPKSLIYDASSLESGVPSRFSGSGSGTDFTLTISSLQPEDFATYYCQQFNSYPITFGQGTRLEIK
notes: it says that the name implies no specific constant region; Radioiodinated in the Scatchard assay; also called MICA.36 antibody
As usually defined, the Kd is the constant that tells how readily two partners part at equilibrium. Regarding B4, the Kd was 5.12 nM in experiment [2]; ~0.4 nM in [3]; 0.356 nM in experiment [6]; 1.07 nM in experiment [7]; 11 nM in experiment [8]; 1.36 nM in experiment [10]. For the same molecule, the Kd in [12] was ~0.4 nM. In addition, the “Kd of the total-binding curve” value in experiment [4] amounted to 0.871 nM; in [5] it was 0.6 nM; in experiment [9], 2.8 nM; in experiment [11] it was 10.2 nM.

B5: 19G6 (antibody, V domains shown)
VH: B4 VH
VL: B4 VL
notes: Hybridoma antibody from human IgG transgenic mice, parent of MICA.36; also called 19G6 mAb; hybridoma 19G6
In experiment [1], B5 displayed an EC50 of 1.76 nM.
